Assay results reported in the Immune Epitope Database (IEDB).
pIC50, pKd: −log10 of the molar value.

Experiments:
[1] = biological target: HLA-A*11:01; assay: IEDB peptide-MHC binding, purified MHC/direct/fluorescence; filed as Kd, often an IC50 or EC50 that approximates it; ≥ and ≤ were set here for values at or beyond the usual limits of such assays; details: source organism: Camelpox virus M-96
[2] = biological target: HLA-B*07:02; assay: as above
[3] = biological target: HLA-B*58:01; assay: as above
[4] = biological target: HLA-A*31:01; assay: as above; details: source organism: Camelpox virus M-96
[5] = biological target: HLA-A*69:01; assay: as above
[6] = biological target: HLA-A*01:01; assay: as above
[7] = biological target: HLA-B*57:01; assay: as above
[8] = biological target: HLA-B*46:01; assay: as above
[9] = biological target: HLA-B*40:01; assay: as above
[10] = biological target: HLA-A*03:01; assay: as above; details: source organism: Camelpox virus M-96
[11] = biological target: HLA-B*48:01; assay: as above
[12] = biological target: HLA-B*18:01; assay: IEDB peptide-MHC binding, purified MHC/competitive/fluorescence; filed as Kd, often an IC50 or EC50 that approximates it; ≥ and ≤ were set here for values at or beyond the usual limits of such assays; details: source organism: Vaccinia virus Copenhagen
[13] = biological target: HLA-A*02:06; assay: as above; details: source organism: Vaccinia virus Copenhagen
[14] = biological target: HLA-A*68:02; assay: as above
[15] = biological target: HLA-B*15:17; assay: as above; details: source organism: Vaccinia virus Copenhagen
[16] = biological target: HLA-A*26:02; assay: as above; details: source organism: Vaccinia virus Copenhagen
[17] = biological target: HLA-A*26:03; assay: as above; details: source organism: Vaccinia virus Copenhagen
[18] = biological target: HLA-B*15:01; assay: as above; details: source organism: Vaccinia virus Copenhagen
[19] = biological target: HLA-A*02:01; assay: as above
[20] = biological target: HLA-B*08:01; assay: as above; details: source organism: Vaccinia virus Copenhagen
[21] = biological target: HLA-C*07:02; assay: IEDB peptide-MHC binding, purified MHC/direct/fluorescence; filed as Kd, often an IC50 or EC50 that approximates it; ≥ and ≤ were set here for values at or beyond the usual limits of such assays
[22] = biological target: HLA-B*15:42; assay: IEDB peptide-MHC binding, purified MHC/competitive/fluorescence; filed as Kd, often an IC50 or EC50 that approximates it; ≥ and ≤ were set here for values at or beyond the usual limits of such assays; details: source organism: Mycobacterium tuberculosis C
[23] = biological target: HLA-B*27:20; assay: as above; details: source organism: Mycobacterium tuberculosis C
[24] = biological target: HLA-B*83:01; assay: as above; details: source organism: Mycobacterium tuberculosis C
[25] = biological target: HLA-B*45:06; assay: as above; details: source organism: Mycobacterium tuberculosis C
[26] = biological target: HLA-A*32:07; assay: as above; details: source organism: Mycobacterium tuberculosis C
[27] = biological target: HLA-B*08:02; assay: IEDB peptide-MHC binding, purified MHC/direct/fluorescence; filed as Kd, often an IC50 or EC50 that approximates it; ≥ and ≤ were set here for values at or beyond the usual limits of such assays; details: source organism: Bacillus cereus NVH0597-99
[28] = biological target: HLA-B*15:17; assay: as above
[29] = biological target: HLA-A*26:02; assay: as above; details: source organism: Bacillus cereus NVH0597-99
[30] = biological target: HLA-A*26:03; assay: as above
[31] = biological target: HLA-B*27:05; assay: as above; details: source organism: Bacillus anthracis
[32] = biological target: HLA-B*08:03; assay: as above
[33] = biological target: HLA-A*11:01; assay: IEDB peptide-MHC binding, purified MHC/competitive/fluorescence; filed as Kd, often an IC50 or EC50 that approximates it; ≥ and ≤ were set here for values at or beyond the usual limits of such assays; details: source organism: Bacillus anthracis str. A0488
[34] = biological target: HLA-A*31:01; assay: as above; details: source organism: Bacillus anthracis str. A0488
[35] = biological target: HLA-A*30:01; assay: as above
[36] = biological target: HLA-B*15:09; assay: IEDB peptide-MHC binding, purified MHC/direct/fluorescence; filed as Kd, often an IC50 or EC50 that approximates it; ≥ and ≤ were set here for values at or beyond the usual limits of such assays; details: source organism: Variola virus
[37] = biological target: HLA-B*39:01; assay: as above; details: source organism: Cowpox virus
[38] = biological target: HLA-A*68:02; assay: as above; details: source organism: Cowpox virus
[39] = biological target: HLA-B*15:01; assay: as above; details: source organism: Cowpox virus
[40] = biological target: HLA-A*02:01; assay: as above; details: source organism: Cowpox virus
[41] = biological target: HLA-B*38:01; assay: as above; details: source organism: Variola virus
[42] = biological target: HLA-A*01:01; assay: IEDB peptide-MHC binding, purified MHC/competitive/fluorescence; filed as Kd, often an IC50 or EC50 that approximates it; ≥ and ≤ were set here for values at or beyond the usual limits of such assays; details: source organism: Vaccinia virus Copenhagen
[43] = biological target: HLA-B*27:05; assay: as above; details: source organism: Vaccinia virus Copenhagen
[44] = biological target: HLA-B*48:01; assay: as above; details: source organism: Vaccinia virus Copenhagen
[45] = biological target: HLA-A*24:02; assay: as above
[46] = biological target: HLA-B*35:01; assay: IEDB peptide-MHC binding, purified MHC/competitive/fluorescence; ≥ and ≤ were set here for values at or beyond the usual limits of such assays; details: source organism: Bos taurus
[47] = biological target: HLA-A*24:02; assay: as above; details: source organism: Bos taurus
[48] = source organism: Camelpox virus M-96
[49] = source organism: Vaccinia virus Copenhagen
[50] = source organism: Bacillus anthracis
[51] = source organism: Bacillus cereus NVH0597-99
[52] = source organism: Bacillus anthracis str. A0488
[53] = source organism: West Nile virus

Q: ALYSYASAK was tested. Which pKd [1] did it give?
A: The pKd was 7.93.

Q: What about the pKd [2, 48] of the same sequence?
A: Its pKd is ≤ 4.70.

Q: And the pKd [3, 48]?
A: Its pKd is ≤ 4.70.

Q: And the pKd [4]?
A: The pKd was 6.97.

Q: And the pKd [5, 48]?
A: Its pKd is ≤ 4.70.

Q: And the pKd [6, 48]?
A: The pKd was ≤ 4.70.

Q: What about the pKd [7, 48] of the same sequence?
A: The pKd was ≤ 4.70.

Q: What about the pKd [8, 48] of the same sequence?
A: The pKd was ≤ 4.70.

Q: And the pKd [9, 48]?
A: The pKd was ≤ 4.70.

Q: What about the pKd [10] of the same sequence?
A: Its pKd is 7.40.

Q: What about the pKd [11, 48] of the same sequence?
A: The pKd was ≤ 4.70.

Q: And the pKd [12]?
A: The pKd was ≤ 4.70.

Q: And the pKd [13]?
A: Its pKd is 6.57.

Q: What about the pKd [14, 49] of the same sequence?
A: Its pKd is ≤ 4.70.

Q: And the pKd [15]?
A: Its pKd is ≤ 4.70.

Q: And the pKd [16]?
A: The pKd was ≤ 4.70.

Q: What about the pKd [17] of the same sequence?
A: Its pKd is 6.31.

Q: And the pKd [18]?
A: The pKd was ≤ 4.70.

Q: And the pKd [19, 49]?
A: The pKd was 7.25.

Q: What about the pKd [20] of the same sequence?
A: The pKd was ≤ 4.70.

Q: How did the pKd ([21]; source organism: Mycobacterium tuberculosis C) turn out when RARRHLAAL was run?
A: Its pKd is 5.87.

Q: What about the pKd [22] of the same sequence?
A: Its pKd is ≤ 5.30.

Q: And the pKd [23]?
A: Its pKd is 8.13.

Q: What about the pKd [24] of the same sequence?
A: The pKd was 5.30.

Q: What about the pKd [25] of the same sequence?
A: Its pKd is ≤ 5.30.

Q: And the pKd [26]?
A: Its pKd is 6.94.

Q: How did the pKd [27] turn out when REFEAQNVP was run?
A: Its pKd is ≤ 4.70.

Q: And the pKd [2, 50]?
A: Its pKd is ≤ 4.70.

Q: What about the pKd [3, 50] of the same sequence?
A: The pKd was ≤ 4.70.

Q: And the pKd [5, 50]?
A: The pKd was ≤ 4.70.

Q: And the pKd [6, 50]?
A: Its pKd is ≤ 4.70.

Q: What about the pKd [28, 50] of the same sequence?
A: The pKd was ≤ 4.70.

Q: And the pKd [29]?
A: The pKd was ≤ 4.70.

Q: And the pKd [7, 50]?
A: Its pKd is ≤ 4.70.

Q: What about the pKd [30, 51] of the same sequence?
A: The pKd was ≤ 4.70.

Q: What about the pKd [9, 50] of the same sequence?
A: The pKd was 6.53.

Q: And the pKd [31]?
A: Its pKd is ≤ 4.70.

Q: What about the pKd [32, 51] of the same sequence?
A: The pKd was ≤ 4.70.

Q: What about the pKd [11, 50] of the same sequence?
A: Its pKd is ≤ 4.70.

Q: And the pKd [33]?
A: The pKd was 6.30.

Q: And the pKd [14, 52]?
A: The pKd was 5.66.

Q: What about the pKd [34] of the same sequence?
A: Its pKd is ≤ 4.70.

Q: What about the pKd [19, 52] of the same sequence?
A: Its pKd is 6.84.

Q: And the pKd [35, 52]?
A: Its pKd is 6.28.

Q: What does the source list for RHDITGFIL?
A: pKd [36]: 5.56; pKd [37]: 7.63; pKd ([2]; source organism: Cowpox virus): ≤ 4.70; pKd [38]: ≤ 4.70; pKd ([3]; source organism: Cowpox virus): ≤ 4.70; pKd ([5]; source organism: Cowpox virus): ≤ 4.70; pKd ([28]; source organism: Cowpox virus): ≤ 4.70; pKd ([7]; source organism: Cowpox virus): ≤ 4.70; pKd ([8]; source organism: Cowpox virus): ≤ 4.70; pKd ([30]; source organism: Variola virus): ≤ 4.70; pKd [39]: ≤ 4.70; pKd [40]: ≤ 4.70; pKd ([9]; source organism: Cowpox virus): 6.29; pKd [41]: 7.48; pKd ([32]; source organism: Variola virus): ≤ 4.70; pKd [12]: ≤ 4.70; pKd [42]: ≤ 4.70; pKd [43]: ≤ 4.70; pKd [35, 49]: ≤ 4.70; pKd [44]: 6.53

Q: SYHDRRWCF was tested. Which pKd [21, 53] did it give?
A: Its pKd is 7.77.

Q: What about the pKd [45, 53] of the same sequence?
A: The pKd was 8.00.

Q: With WYAPVALLF as the sequence, how does the pKd [45, 52] read?
A: The pKd was ≥ 10.00.

Q: How did the pIC50 [46] turn out when YMMDDLEL was run?
A: Its pIC50 is ≤ 4.70.

Q: And the pIC50 [47]?
A: Its pIC50 is 5.97.
